Test results from article PMC3350560.

B1: probe C (oligo C) (dsDNA)
DNA 1: GGCAAACAGCAGGAATTCCTAAAAAATTCGAAAAGGTTTCT
DNA 2: AGAAACCTTTTCGAATTTTTTAGGAATTCCTGCTGTTTGCC
B2: probe A (oligo A) (dsDNA)
DNA 1: GATTTGCGTTTTAGAGGCTATAGGCTCTTGAAACTCTCCA
DNA 2: TGGAGAGTTTCAAGAGCCTATAGCCTCTAAAACGCAAATC
B3: probe D (oligo D) (dsDNA)
DNA 1: CAATGATTTGCGTTTTAG
DNA 2: CTAAAACGCAAATCATTG

The binders below were run against rCKAP4 (recombinant CKAP4 extracellular domain) (UniProt Q07065 126-501) (assay: EMSA).
Chain of rCKAP4 (recombinant CKAP4 extracellular domain) (Q07065 126-501): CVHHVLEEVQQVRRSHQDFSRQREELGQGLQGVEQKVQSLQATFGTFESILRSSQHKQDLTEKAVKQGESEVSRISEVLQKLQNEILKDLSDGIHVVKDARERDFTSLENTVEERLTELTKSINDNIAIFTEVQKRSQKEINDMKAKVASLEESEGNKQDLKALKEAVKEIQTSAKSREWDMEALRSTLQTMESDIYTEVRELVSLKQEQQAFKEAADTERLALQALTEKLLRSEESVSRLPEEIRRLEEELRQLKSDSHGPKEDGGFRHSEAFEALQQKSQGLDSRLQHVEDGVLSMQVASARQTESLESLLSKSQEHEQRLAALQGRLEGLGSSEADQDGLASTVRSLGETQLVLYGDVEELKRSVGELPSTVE
B1: no binding. B2: binds. B3: no binding.
